# Measured values taken from the Human Domainome abundance scans (Beltran et al. 2025).
# ± gives the uncertainty stated by the source.
# B1: Zinc finger homeobox protein 3, residues 2147 to 2202; numbered along this chain, Q15911 (parent)
# chain: RPRTRITDDQLRVLRQYFDINNSPSEEQIKEMADKSGLPQKVIKHWFRNTLFKERQ
# Variants of: B1
# Assay: abundance fitness (aPCA) (normalised: wild type 0, dead -1); higher = more abundant; growth selection in yeast, the domain comes from the species named
# Settings: Homo sapiens
row,Variant,abundance fitness
1,RPRTRITDDQLRVLRQYFDINNSPSEEQIKEMADKSGDPQKVIKHWFRNTLFKERQ [L38D],-1.02 ± 0.18
2,RPRTRITDDQLRVLRQYFDINNSPSEEQIKEMADKSGSPQKVIKHWFRNTLFKERQ [L38S],-0.712 ± 0.095
3,RPRTRITDDQLRVLRQYFDINNSPSEEQIKEMADKSGCPQKVIKHWFRNTLFKERQ [L38C],-0.143 ± 0.14
4,RPRTRITDDQLRVLRQYFDINNSPSEEQIKEMADKSGQPQKVIKHWFRNTLFKERQ [L38Q],-0.649 ± 0.13
5,RPRTRITDDQLRVLRQYFDINNSPSEEQIKEMADKSGKPQKVIKHWFRNTLFKERQ [L38K],-1.04 ± 0.15
6,RPRTRITDDQLRVLRQYFDINNSPSEEQIKEMADKSGNPQKVIKHWFRNTLFKERQ [L38N],-1.15 ± 0.28
7,RPRTRITDDQLRVLRQYFDINNSPSEEQIKEMADKSGEPQKVIKHWFRNTLFKERQ [L38E],-0.706 ± 0.11
8,RPRTRITDDQLRVLRQYFDINNSPSEEQIKEMADKSGHPQKVIKHWFRNTLFKERQ [L38H],-1.1 ± 0.38
9,RPRTRITDDQLRVLRQYFDINNSPSEEQIKEMADKSGRPQKVIKHWFRNTLFKERQ [L38R],-0.971 ± 0.077
10,RPRTRITDDQLRVLRQYFDINNSPSEEQIKEMADKSGYPQKVIKHWFRNTLFKERQ [L38Y],-1.05 ± 0.33
11,RPRTRITDDQLRVLRQYFDINNSPSEEQIKEMADKSGFPQKVIKHWFRNTLFKERQ [L38F],-0.762 ± 0.18
12,RPRTRITDDQLRVLRQYFDINNSPSEEQIKEMADKSGGPQKVIKHWFRNTLFKERQ [L38G],-0.857 ± 0.075
13,RPRTRITDDQLRVLRQYFDINNSPSEEQIKEMADKSGPPQKVIKHWFRNTLFKERQ [L38P],-0.858 ± 0.13
14,RPRTRITDDQLRVLRQYFDINNSPSEEQIKEMADKSGVPQKVIKHWFRNTLFKERQ [L38V],-0.008 ± 0.08
15,RPRTRITDDQLRVLRQYFDINNSPSEEQIKEMADKSGMPQKVIKHWFRNTLFKERQ [L38M],-0.302 ± 0.11
16,RPRTRITDDQLRVLRQYFDINNSPSEEQIKEMADKSGLPQRVIKHWFRNTLFKERQ [K41R],-0.142 ± 0.083
17,RPRTRITDDQLRVLRQYFDINNSPSEEQIKEMADKSGLPQDVIKHWFRNTLFKERQ [K41D],-0.054 ± 0.19
18,RPRTRITDDQLRVLRQYFDINNSPSEEQIKEMADKSGLPQQVIKHWFRNTLFKERQ [K41Q],0.095 ± 0.15
19,RPRTRITDDQLRVLRQYFDINNSPSEEQIKEMADKSGLPQIVIKHWFRNTLFKERQ [K41I],-0.022 ± 0.2
20,RPRTRITDDQLRVLRQYFDINNSPSEEQIKEMADKSGLPQLVIKHWFRNTLFKERQ [K41L],-0.004 ± 0.094
21,RPRTRITDDQLRVLRQYFDINNSPSEEQIKEMADKSGLPQFVIKHWFRNTLFKERQ [K41F],-0.274 ± 0.25
22,RPRTRITDDQLRVLRQYFDINNSPSEEQIKEMADKSGLPQAVIKHWFRNTLFKERQ [K41A],-0.056 ± 0.12
23,RPRTRITDDQLRVLRQYFDINNSPSEEQIKEMADKSGLPQEVIKHWFRNTLFKERQ [K41E],0.01 ± 0.11
24,RPRTRITDDQLRVLRQYFDINNSPSEEQIKEMADKSGLPQCVIKHWFRNTLFKERQ [K41C],0.126 ± 0.14

row,Variant,abundance fitness
1,RPRTRITDDQLRVLRQYFDINNSPSEEQIKEMADKSGLPQGVIKHWFRNTLFKERQ [K41G],0.108 ± 0.079
2,RPRTRITDDQLRVLRQYFDINNSPSEEQIKEMADKSGLPQSVIKHWFRNTLFKERQ [K41S],-0.02 ± 0.11
3,RPRTRITDDQLRVLRQYFDINNSPSEEQIKEMADKSGLPQPVIKHWFRNTLFKERQ [K41P],-0.259 ± 0.12
4,RPRTRITDDQLRVLRQYFDINNSPSEEQIKEMADKSGLPQMVIKHWFRNTLFKERQ [K41M],-0.011 ± 0.13
5,RPRTRITDDQLRVLRQYFDINNSPSEEQIKEMADKSGLPQNVIKHWFRNTLFKERQ [K41N],-0.053 ± 0.16
6,RPRTRITDDQLRVLRQYFDINNSPSEEQIKEMADKSGLPMKVIKHWFRNTLFKERQ [Q40M],-0.103 ± 0.11
7,RPRTRITDDQLRVLRQYFDINNSPSEEQIKEMADKSGLPVKVIKHWFRNTLFKERQ [Q40V],-0.046 ± 0.084
8,RPRTRITDDQLRVLRQYFDINNSPSEEQIKEMADKSGLPSKVIKHWFRNTLFKERQ [Q40S],0.014 ± 0.091
9,RPRTRITDDQLRVLRQYFDINNSPSEEQIKEMADKSGLPPKVIKHWFRNTLFKERQ [Q40P],0.121 ± 0.1
10,RPRTRITDDQLRVLRQYFDINNSPSEEQIKEMADKSGLPWKVIKHWFRNTLFKERQ [Q40W],-0.068 ± 0.092
11,RPRTRITDDQLRVLRQYFDINNSPSEEQIKEMADKSGLPCKVIKHWFRNTLFKERQ [Q40C],-0.118 ± 0.11
12,RPRTRITDDQLRVLRQYFDINNSPSEEQIKEMADKSGLPHKVIKHWFRNTLFKERQ [Q40H],0.025 ± 0.18
13,RPRTRITDDQLRVLRQYFDINNSPSEEQIKEMADKSGLPDKVIKHWFRNTLFKERQ [Q40D],-0.06 ± 0.19
14,RPRTRITDDQLRVLRQYFDINNSPSEEQIKEMADKSGLPIKVIKHWFRNTLFKERQ [Q40I],-0.162 ± 0.15
15,RPRTRITDDQLRVLRQYFDINNSPSEEQIKEMADKSGLPNKVIKHWFRNTLFKERQ [Q40N],0.102 ± 0.31
16,RPRTRITDDQLRVLRQYFDINNSPSEEQIKEMADKSGLPYKVIKHWFRNTLFKERQ [Q40Y],0.088 ± 0.32
17,RPRTRITDDQLRVLRQYFDINNSPSEEQIKEMADKSGLPLKVIKHWFRNTLFKERQ [Q40L],0.072 ± 0.083
18,RPRTRITDDQLRVLRQYFDINNSPSEEQIKEMADKSGLPKKVIKHWFRNTLFKERQ [Q40K],0.193 ± 0.12
19,RPRTRITDDQLRVLRQYFDINNSPSEEQIKEMADKSGLPEKVIKHWFRNTLFKERQ [Q40E],0.105 ± 0.13
20,RPRTRITDDQLRVLRQYFDINNSPSEEQIKEMADKSGLPRKVIKHWFRNTLFKERQ [Q40R],0.022 ± 0.071
21,RPRTRITDDQLRVLRQYFDINNSPSEEQIKEMADKSGLPFKVIKHWFRNTLFKERQ [Q40F],-0.172 ± 0.23
22,RPRTRITDDQLRVLRQYFDINNSPSEEQIKEMADKSGLPGKVIKHWFRNTLFKERQ [Q40G],-0.073 ± 0.074
23,RPRTRITDDQLRVLRQYFDINNSPSEEQIKEMADKSGLPTKVIKHWFRNTLFKERQ [Q40T],0.054 ± 0.099
